{
  "source": "patent US20230174575A1",
  "about": "(priority 2020, published 2023)",
  "molecules": {"B1": {"name": "Ovotransferrin: hen egg white protein, product code 501P2001090, produced by Bioseutica BV (protein, UniProt P02789 20-705, looked up)", "Ovotransferrin": "APPKSVIRWCTISSPEEKKCNNLRDLTQQERISLTCVQKATYLDCIKAIANNEADAISLDGGQAFEAGLAPYKLKPIAAEVYEHTEGSTTSYYAVAVVKKGTEFTVNDLQGKTSCHTGLGRSAGWNIPIGTLLHRGAIEWEGIESGSVEQAVAKFFSASCVPGATIEQKLCRQCKGDPKTKCARNAPYSGYSGAFHCLKDGKGDVAFVKHTTVNENAPDQKDEYELLCLDGSRQPVDNYKTCNWARVAAHAVVARDDNKVEDIWSFLSKAQSDFGVDTKSDFHLFGPPGKKDPVLKDLLFKDSAIMLKRVPSLMDSQLYLGFEYYSAIQSMRKDQLTPSPRENRIQWCAVGKDEKSKCDRWSVVSNGDVECTVVDETKDCIIKIMKGEADAVALDGGLVYTAGVCGLVPVMAERYDDESQCSKTDERPASYFAVAVARKDSNVNWNNLKGKKSCHTAVGRTAGWVIPMGLIHNRTGTCNFDEYFSEGCAPGSPPNSRLCQLCQGSGGIPPEKCVASSHEKYFGYTGALRCLVEKGDVAFIQHSTVEENTGGKNKADWAKNLQMDDFELLCTDGRRANVMDYRECNLAEVPTHAVVVRPEKANKIRDLLERQEKRFGVNGSEKSKFMMFESQNKDLLFKDLTKCLFKVREGTTYKEFLGDKFYTVISSLKTCNPSDILQMCSFLEGK"}},
  "key": {"SARS-CoV-2": {"test_system": "SARS-CoV-2", "format": "cell-based", "conditions": "concentrations ranging from 10 mg/ml to 1.25 mg/ml"}, "Vero cells": {"test_system": "Vero cells", "assay": "Cell toxicity against Vero cells by MTT assay", "conditions": "MTT assay", "procedure": "Cell toxicity was monitored by establishing the effect of lysozyme HCl against Vero cells (epithelial cells of monkey kidneys). The cells were seeded in 96-well plates at the concentration of 1×10^4 cells/well. 24 hours after seeding, the cells were treated with serial dilutions of lysozyme HCl or chloroquine (as control), in a final volume of 200 in triplicate. After 72 hours' incubation at 37° C. with 5% CO2, cell viability was measured by MTT assay (D'Alessandro, M. et al., Differential effects on angiogenesis of two antimalarial compounds, dihydroartemisinin and artemisone: Implications for embryotoxicity, Toxicology. 241 (2007) 66-74. Doi: 10.1016/j.tox.2007.08.084).\nThe data were calculated as percentage cell viability using the formula:\n[(absorbance of sample−blank of cell-free sample)/mean absorbance of control of media]×100.\nThe cytotoxicity of ovotransferrin and chloroquine (CQ) was measured by MTT assay, similarly to the method used for lysozyme HCl."}},
  "data": [
    {"molecule": "B1", "values": [
      {"measurement": "antiviral activity of ovotransferrin alone", "setting": "SARS-CoV-2", "result": "no antiviral activity was detected"},
      {"measurement": "viability compared with control cells", "setting": "Vero cells; 10 mg/ml", "result": 100, "unit": "%"},
      {"measurement": "cytotoxicity", "setting": "Vero cells; maximum concentration used (10 mg/ml)", "result": "non-toxic"}
    ]}
  ]
}
